Measured values published in patent US20250066831.

Experiments:
[1] = test system: ELP-CVLS (protein substrate of the in vitro farnesylation reaction)
[2] = test system: V40 elastin-like polypeptide fused to CVLL
V40 elastin-like polypeptide fused to CVLL, sequence (chain, as listed by the source): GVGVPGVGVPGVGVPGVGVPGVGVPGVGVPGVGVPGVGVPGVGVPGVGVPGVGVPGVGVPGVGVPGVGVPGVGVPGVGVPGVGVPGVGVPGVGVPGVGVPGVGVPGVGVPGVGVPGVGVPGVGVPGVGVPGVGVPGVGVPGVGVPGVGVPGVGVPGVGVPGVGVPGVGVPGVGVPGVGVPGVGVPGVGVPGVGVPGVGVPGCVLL

| Substance | in vitro farnesylation (3 µM ELP-CVLS, 0.2 µM FTase, 10 µM FPP, RP-HPLC) [1] | farnesylation on co-expression in E. coli (HPLC, MALDI-TOF MS, NMR of purified V40-Fr) [2] |
| --- | --- | --- |
| farnesyltransferase (FTase) from Rattus norvegicus, heterodimer of alpha and beta subunits | In vitro farnesylation of ELPs with the soluble transferase (produced as a translationally coupled heterodimer) indicates that the recombinantly expressed enzyme is active | – |
| geranylgeranyl transferase type I (GGTase-I) from Rattus norvegicus, heterodimer of alpha and beta subunits | – | only one farnesyl group is added to the protein at the cysteine residue located in the C-terminal CaaX motif |
